Among the targets are HLA-A*02:02; HLA-A*02:06; HLA-A*02:03; HLA-A*02:01; HLA-A*68:02.
Holding throughout (test): IEDB peptide-MHC binding, cellular MHC/competitive/fluorescence; ≥ and ≤ were set here for values at or beyond the usual limits of such assays
Setting [1] is: source organism: Influenza A virus.
The mark [2] stands for this setting: source organism: Vaccinia virus WR.

Among the data in the Immune Epitope Database (IEDB) are IC50 values, retold here.

In general, IC50 refers to the concentration that gives 50% inhibition.

Bounds are passed on as bounds.

With AAFEDLRL, the IC50 was 17.5 µM with HLA-A*02:02 (setting [1]); 46.9 µM with HLA-A*02:06 (setting [1]); 48.9 µM with HLA-A*02:03 (setting [1]); at least 70 µM in the assay with HLA-A*02:01 (setting [1]); 59.8 µM with HLA-A*68:02 (setting [1]).
Consider AAFEDLRV, for which the IC50 with HLA-A*02:02 (setting [1]) is 28.8 µM; in the assay with HLA-A*02:06 (setting [1]), 18.4 µM; with HLA-A*02:03 (setting [1]), 7.32 µM; with HLA-A*02:01 (setting [1]), 31.4 µM; with HLA-A*68:02 (setting [1]), at least 70 µM.
As for AARLKRSAT, the IC50 with HLA-A*02:02 (setting [2]) is 12.5 µM; with HLA-A*02:06 (setting [2]) it was 63.8 µM; with HLA-A*02:03 (setting [2]), 10.5 µM; with HLA-A*02:01 (setting [2]) it was at least 70 µM; in the assay with HLA-A*68:02 (setting [2]), at least 70 µM.
Turning to AATKRYPGVM, the concentration for half-maximal inhibition (IC50) was 20.1 µM in the assay with HLA-A*02:02 (setting [2]); 46.8 µM in the assay with HLA-A*02:06 (setting [2]); 47.9 µM in the assay with HLA-A*02:03 (setting [2]); 67.2 µM in the assay with HLA-A*02:01 (setting [2]); at least 70 µM in the assay with HLA-A*68:02 (setting [2]).
Turning to AIDRQVSVKL, the half-maximal inhibitory concentration (IC50) in the assay with HLA-A*02:02 (setting [2]) turned out to be 7.9 µM; with HLA-A*02:06 (setting [2]) it was 31.9 µM; in the assay with HLA-A*02:03 (setting [2]), 13.1 µM; with HLA-A*02:01 (setting [2]), 14 µM; with HLA-A*68:02 (setting [2]), 52.3 µM.
In the case of AIKQYGDIDL, the half-maximal inhibitory concentration (IC50) in the assay with HLA-A*02:02 (setting [2]) was 23.4 µM; with HLA-A*02:06 (setting [2]), at least 70 µM; with HLA-A*02:03 (setting [2]) it was 46.4 µM; in the assay with HLA-A*02:01 (setting [2]) it was 45.8 µM; with HLA-A*68:02 (setting [2]), 38.7 µM.
On to AIKSNNHLT, for which the IC50 is 50.7 µM in the assay with HLA-A*02:02 (setting [2]); at least 70 µM with HLA-A*02:06 (setting [2]); 28.6 µM with HLA-A*02:03 (setting [2]); 27.2 µM with HLA-A*02:01 (setting [2]); 46.1 µM with HLA-A*68:02 (setting [2]).
In the case of AINKCVDIFT, the IC50 with HLA-A*02:02 (setting [2]) was 25.3 µM; in the assay with HLA-A*02:06 (setting [2]), 38.5 µM; with HLA-A*02:03 (setting [2]) it was 26.4 µM; with HLA-A*02:01 (setting [2]) it was 15.9 µM; with HLA-A*68:02 (setting [2]) it was 39 µM.
As for ALEPRKEIDV, the IC50 is 8.37 µM in the assay with HLA-A*02:02 (setting [2]); 63.8 µM with HLA-A*02:06 (setting [2]); 11.2 µM in the assay with HLA-A*02:03 (setting [2]); 27.2 µM in the assay with HLA-A*02:01 (setting [2]); at least 70 µM with HLA-A*68:02 (setting [2]).
In the case of ALSYSAGA, the 50% inhibitory concentration (IC50) was 16.9 µM with HLA-A*02:02 (setting [1]); at least 70 µM with HLA-A*02:06 (setting [1]); 10.7 µM in the assay with HLA-A*02:03 (setting [1]); 39.3 µM in the assay with HLA-A*02:01 (setting [1]); at least 70 µM with HLA-A*68:02 (setting [1]).
For the sequence ALSYSTGA, the half-inhibitory concentration (IC50) in the assay with HLA-A*02:02 (setting [1]) is at least 70 µM; with HLA-A*02:06 (setting [1]), at least 70 µM; with HLA-A*02:03 (setting [1]), 25.8 µM; in the assay with HLA-A*02:01 (setting [1]) it was at least 70 µM; in the assay with HLA-A*68:02 (setting [1]), at least 70 µM.
For the sequence ATAILRKA, the half-maximal inhibitory concentration (IC50) with HLA-A*02:02 (setting [1]) is 61.8 µM; with HLA-A*02:06 (setting [1]), at least 70 µM; with HLA-A*02:03 (setting [1]), 42.3 µM; in the assay with HLA-A*02:01 (setting [1]), 52.9 µM; with HLA-A*68:02 (setting [1]), at least 70 µM.
As for ATALANTI, the half-inhibitory concentration (IC50) with HLA-A*02:02 (setting [1]) is 42.9 µM; with HLA-A*02:06 (setting [1]), at least 70 µM; with HLA-A*02:03 (setting [1]), 22.4 µM; in the assay with HLA-A*02:01 (setting [1]) it was 21.9 µM; in the assay with HLA-A*68:02 (setting [1]), 40.8 µM.
On to ATKRIRMA, for which the half-inhibitory concentration (IC50) in the assay with HLA-A*02:02 (setting [1]) is 59.4 µM; in the assay with HLA-A*02:06 (setting [1]) it was at least 70 µM; with HLA-A*02:03 (setting [1]) it was 11.9 µM; with HLA-A*02:01 (setting [1]) it was 42.9 µM; with HLA-A*68:02 (setting [1]), 58.6 µM.
Consider ATQFNFNGHT, for which the IC50 was found to be 28.6 µM in the assay with HLA-A*02:02 (setting [2]); 26.4 µM in the assay with HLA-A*02:06 (setting [2]); 11.5 µM with HLA-A*02:03 (setting [2]); 38.6 µM with HLA-A*02:01 (setting [2]); 23.3 µM with HLA-A*68:02 (setting [2]).
As to ATRRMIQL, the IC50 with HLA-A*02:02 (setting [1]), in the assay with HLA-A*02:06 (setting [1]), in the assay with HLA-A*02:03 (setting [1]), with HLA-A*02:01 (setting [1]) and with HLA-A*68:02 (setting [1]) was at least 70 µM each time.
Regarding ATVSADPL, the IC50 with HLA-A*02:02 (setting [1]) was 52 µM; in the assay with HLA-A*02:06 (setting [1]), 21.5 µM; in the assay with HLA-A*02:03 (setting [1]) it was at least 70 µM; with HLA-A*02:01 (setting [1]) it was at least 70 µM; in the assay with HLA-A*68:02 (setting [1]), 42.3 µM.
For the sequence ATYQRTRA, the half-inhibitory concentration (IC50) with HLA-A*02:02 (setting [1]), in the assay with HLA-A*02:06 (setting [1]), in the assay with HLA-A*02:03 (setting [1]), in the assay with HLA-A*02:01 (setting [1]) and with HLA-A*68:02 (setting [1]) was at least 70 µM each time.
In the case of AVPNGTLV, the IC50 with HLA-A*02:02 (setting [1]) is 10.8 µM; with HLA-A*02:06 (setting [1]), 10.6 µM; with HLA-A*02:03 (setting [1]), at least 70 µM; in the assay with HLA-A*02:01 (setting [1]), at least 70 µM; with HLA-A*68:02 (setting [1]), 42.9 µM.
Take AVSVYGAIT: the IC50 in the assay with HLA-A*02:02 (setting [2]) turned out to be 11.4 µM; in the assay with HLA-A*02:06 (setting [2]) it was 14.2 µM; with HLA-A*02:03 (setting [2]), 9.62 µM; with HLA-A*02:01 (setting [2]) it was 7.23 µM; in the assay with HLA-A*68:02 (setting [2]), 6.28 µM.
In the case of CLEAKTHFST, the half-inhibitory concentration (IC50) with HLA-A*02:02 (setting [2]) was 12.4 µM; with HLA-A*02:06 (setting [2]) it was at least 70 µM; with HLA-A*02:03 (setting [2]), 11.1 µM; with HLA-A*02:01 (setting [2]), 49.7 µM; with HLA-A*68:02 (setting [2]), at least 70 µM.
In the case of CTEETKRNIA, the IC50 in the assay with HLA-A*02:02 (setting [2]) was at least 70 µM; with HLA-A*02:06 (setting [2]), at least 70 µM; with HLA-A*02:03 (setting [2]), 50.1 µM; in the assay with HLA-A*02:01 (setting [2]), at least 70 µM; in the assay with HLA-A*68:02 (setting [2]), 15.2 µM.
With CVRLNNPVIL, the half-maximal inhibitory concentration (IC50) is 8.56 µM with HLA-A*02:02 (setting [2]); 45.1 µM with HLA-A*02:06 (setting [2]); 5.4 µM with HLA-A*02:03 (setting [2]); 13.4 µM with HLA-A*02:01 (setting [2]); at least 70 µM with HLA-A*68:02 (setting [2]).
